In experiment [1] the test system is Cladosporium cladosporioides. Type of experiment: in vivo.
The test system of experiment [2] is Citrus trees infected with Candidatus Liberibacter asiaticus. Type of experiment: in vivo, Citrus x paradisi. Conditions: […], trunk injection.
The test system of experiment [3] is Citrus trees infected with CLas. The experiment is described as follows: Recovery composition trunk injection: 'Valencia' orange fruit yield (Examples 3, 19). Type of experiment: in vivo, Citrus sinesis.
Experiment [4] shares this test system. Also on record: species or system Citrus sinesis. To be noted: in vivo.

B1: SEQ ID NO: 732: β-1,3 endoglucanase, Paenibacillus species (protein)
chain: AETAGTTITSMSYFSTADGPIITKSGVGQASYGFVMPIFNGGSATWNDVAQDLGVKVKVNGSWVDIDSVSSFVYNQNWGHWNDGGFTGYWFTLSATTEIQLYSKANEVTLEYSLVFQNINKTTITAMTPTQGPQITAGFTGGAGFTYPIFNHDPAITYAAVADDLKVYVKPVNSSQWIDIDNNAASGWIYDQNFGQFTDGGGGYWFNVTESINVKLESKTSSTNIVYTISFNEPVRNSYVLTPYEGTTFTADASGAIGIPLPKIDGGAPIGTELGNFVYQININGQWVDLDNSSQSGFVYSANGYNNMSAANQWGYWADHIYGLWFQPIQVDMQIRIGYPLNGQAGGSVGSNFVNYTLIGNPDAPRPDVNDQEDIPIGTPNDSAIEGMNLIWQDEFNGTALDQSKWNYETGYYLNDDPNTWGWGNSELQHYTDRAQNVFVQDGKLNIKALNEPKSFPQDPSRYAQYSSGKINTKDHFSLKYGRVDFRAKLPTGNGIWPALWMLPQDNVYGTWASSGEIDVMEAKGRLPGSTSGAVHFGGQWPTNRYLSGEYHFPEGQTFANDYHVYSVVWEEDNIKWYVDGKFFFKVTRDQWYSAAAPNNPNAPFDQPFYLIMNLAIGGTFDGGRTPDPSDIPATMQVDYVRVYKEGEGGGQNPGNVPVTGVTVNPTTAQVEVGQSVQLNASVAPSNATNKQVTWSVSGSSIASVSPNGLVTGLAQGTTTVTATTADGNKAASATITVAPAPSTVIVIGDEVKGLKKIGDDLLFYVNGATFADLHYKVNNGGQLNVAMAPTGNGNYTYPVHNLKHGDTVEYFFTYNPGQGALDTPWQTYVHGVTQGTPE
modifications: Paenibacillus spp.
notes: β-1,3 endoglucanase, Paenibacillus species
As for B1, the “mold growth relative to the surfactant only control” value in experiment [1] (in vivo) was 61%.

B2: β-1,3-endoglucanase (bglH) Paenibacillus immobilized enzyme (SEQ ID NO: 732) (protein)
chain: AETAGTTITSMSYFSTADGPIITKSGVGQASYGFVMPIFNGGSATWNDVAQDLGVKVKVNGSWVDIDSVSSFVYNQNWGHWNDGGFTGYWFTLSATTEIQLYSKANEVTLEYSLVFQNINKTTITAMTPTQGPQITAGFTGGAGFTYPIFNHDPAITYAAVADDLKVYVKPVNSSQWIDIDNNAASGWIYDQNFGQFTDGGGGYWFNVTESINVKLESKTSSTNIVYTISFNEPVRNSYVLTPYEGTTFTADASGAIGIPLPKIDGGAPIGTELGNFVYQININGQWVDLDNSSQSGFVYSANGYNNMSAANQWGYWADHIYGLWFQPIQVDMQIRIGYPLNGQAGGSVGSNFVNYTLIGNPDAPRPDVNDQEDIPIGTPNDSAIEGMNLIWQDEFNGTALDQSKWNYETGYYLNDDPNTWGWGNSELQHYTDRAQNVFVQDGKLNIKALNEPKSFPQDPSRYAQYSSGKINTKDHFSLKYGRVDFRAKLPTGNGIWPALWMLPQDNVYGTWASSGEIDVMEAKGRLPGSTSGAVHFGGQWPTNRYLSGEYHFPEGQTFANDYHVYSVVWEEDNIKWYVDGKFFFKVTRDQWYSAAAPNNPNAPFDQPFYLIMNLAIGGTFDGGRTPDPSDIPATMQVDYVRVYKEGEGGGQNPGNVPVTGVTVNPTTAQVEVGQSVQLNASVAPSNATNKQVTWSVSGSSIASVSPNGLVTGLAQGTTTVTATTADGNKAASATITVAPAPSTVIVIGDEVKGLKKIGDDLLFYVNGATFADLHYKVNNGGQLNVAMAPTGNGNYTYPVHNLKHGDTVEYFFTYNPGQGALDTPWQTYVHGVTQGTPE
modifications: immobilized; Paenibacillus spp.
Regarding B2, in experiment [1] (6 days), the “Observed mold growth spots (out of 18 inoculated)” value (“Observed mold growth spots” for short) is recorded as 11 spots (out of 18 inoculated) and the “Percent of mold growth relative to surfactant only control” value amounted to 61%.

B3: SEQ ID NO: 731: callose-degrading β-1,3-endoglucanase from barley (Hordeum vulgare) (protein)
chain: GVCYGVIGNNLPSRSDVVQLYRSKGINGMRIYFADGQALSALRNSGIGLILDIGNDQLANIAASTSNAASWVQNNVRPYYPAVNIKYIAAGNEVQGGATQSILPAMRNLNAALSAAGLGAIKVSTSIRFDEVANSFPPSAGVFKNAYMTDVARLLASTGAPLLANVYPYFAYRDNPGSISLNYATFQPGTTVRDQNNGLTYTSLFDAMVDAVYAALEKAGAPAVKVVVSESGWPSAGGFAASAGNARTYNQGLINHVGGGTPKKREALETYIFAMFNENQKTGDATERSFGLFNPDKSPAYNIQF
modifications: Hordeum vulgare
For B3, the “increased yield compared to the untreated control” value in experiment [2] (harvested 20 months post-treatment) is given as 4.1 kg per tree; in experiment [3] ('Valencia' trees, trunk injection), 14.5 kg per tree. Moreover, the “yield, average relative to control” value in experiment [3] ('Valencia', combined average of 2 sites (Table 56)) was 124%. Further, the “fruit size and ^oBrixc to Citric Acid ratio (Brix:CA) relative to the untreated control” value in experiment [4] was “increased”.

B4: β-1,3-Endoglucanase from Barley (SEQ ID NO: 731) (protein)
chain: GVCYGVIGNNLPSRSDVVQLYRSKGINGMRIYFADGQALSALRNSGIGLILDIGNDQLANIAASTSNAASWVQNNVRPYYPAVNIKYIAAGNEVQGGATQSILPAMRNLNAALSAAGLGAIKVSTSIRFDEVANSFPPSAGVFKNAYMTDVARLLASTGAPLLANVYPYFAYRDNPGSISLNYATFQPGTTVRDQNNGLTYTSLFDAMVDAVYAALEKAGAPAVKVVVSESGWPSAGGFAASAGNARTYNQGLINHVGGGTPKKREALETYIFAMFNENQKTGDATERSFGLFNPDKSPAYNIQF
modifications: Hordeum vulgare
As to B4, in experiment [2] (harvested 20 months post-treatment, Bt.4Q7Flg22 0.33 mg/tree, endoglucanase 2600 U/tree, mixture 660 U + 660 U + 0.27 mg/tree), the “Average Yield (kg per tree)” value stood at 38.7 kg per tree. Moreover, the “Average Yield (kg per tree) Relative to Untreated” value in experiment [2] (untreated = 34.6) is “(112%)”.

B5: endochitinase (SEQ ID NO: 778): endochitinase as printed in b921; probably a misprint for SEQ ID NO: 777 (protein, listed as Serratia marcescens)
chain: MSTRKAVIGYYFIPTNQINNYTETDTSVVPFPVSNITPAKAKQLTHINFSFLDINSNLECAWDPATNDAKARDVVNRLTALKAHNPSLRIMFSIGGWYYSNDLGVSHANYVNAVKTPASRAKFAQSCVRIMKDYGFDGVDIDWEYPQAAEVDGFIAALQEIRTLLNQQTVADGRQALPYQLTIAGAGGAFFLSRYYSKLAQIVAPLDYINLMTYDLAGPWEKVTNHQAALFGDAAGPTFYNALREANLGWSWEELTRAFPSPFSLTVDAAVQQHLMMEGVPSAKIVMGVPFYGRAFKGVSGGNGGQYSSHSTPGEDPYPSTDYWLVGCEECVRDKDPRIASYRQLEQMLQGNYGYQRLWNDKTKTPYLYHAQNGLFVTYDDAESFKYKAKYIKQQQLGGVMFWHLGQDNRNGDLLAALDRYFNAADYDDSQLDMGTGLRYTGVGPGNLPIMTAPAYVPGTTYAQGALVSYQGYVWQTKWGYITSAPGSDSAWLKVGRVA
Turning to B5, the “mold growth relative to the surfactant only control” value in experiment [1] (in vivo) worked out at 83%.

B6: SEQ ID NO: 772: β-1,3 endoglucanase, Cellulosimicrobium cellulans DK1 (protein)
chain: APGDLLWSDEFDGAAGSAPNPAVWNHETGAHGWGNAELQNYTASRANSALDGQGNLVITARREGDGSYTSARMTTQGKYQPQYGRIEARIQIPRGQGIWPAFWMLGGSFPGTPWPSSGEIDIMENVGFEPHRVHGTVHGPGYSGGSGITGMYQHPQGWSFADTFHTFAVDWKPGEITWFVDGQQFHRVTRASVGANAWVFDQPFFLILNVAVGGQWPGYPDGTTQLPQQMKVDYVRVYDNGSGSSNPGNPGTGLPTGTGAVRAANGMCIDVPWADPTDGNPVQIVTCSGNAAQTWTRGSDGTVRALGKCLDVRDGSTTRGAAVQVWTCNGTGAQKWAYDAGSKALRNPQSGLCLDATGGAPLHDGQRLQTWTCNGTTAQQWTL
modifications: Cellulosimicrobium cellulans strain DK-1
notes: β-1,3 endoglucanase, Cellulosimicrobium cellulans DK1
Turning to B6, the “mold growth compared to the surfactant control treatment” value in experiment [1] (in vivo) is 85%.

B7: β-1,3-endoglucanase (DK-1) Cellulosimicrobium cellulans (SEQ ID NO: 772) (protein)
chain: APGDLLWSDEFDGAAGSAPNPAVWNHETGAHGWGNAELQNYTASRANSALDGQGNLVITARREGDGSYTSARMTTQGKYQPQYGRIEARIQIPRGQGIWPAFWMLGGSFPGTPWPSSGEIDIMENVGFEPHRVHGTVHGPGYSGGSGITGMYQHPQGWSFADTFHTFAVDWKPGEITWFVDGQQFHRVTRASVGANAWVFDQPFFLILNVAVGGQWPGYPDGTTQLPQQMKVDYVRVYDNGSGSSNPGNPGTGLPTGTGAVRAANGMCIDVPWADPTDGNPVQIVTCSGNAAQTWTRGSDGTVRALGKCLDVRDGSTTRGAAVQVWTCNGTGAQKWAYDAGSKALRNPQSGLCLDATGGAPLHDGQRLQTWTCNGTTAQQWTL
modifications: Cellulosimicrobium cellulans strain DK-1
With B7, in experiment [1] (6 days), the “Observed mold growth spots” value is recorded as 12 spots (out of 18 inoculated) and the “Percent of mold growth relative to control (mold only)” value is 85%.

B8: Endochitinase (ChiC) Bacillus thuringiensis immobilized enzyme (SEQ ID NO: 777) (protein, listed as Bacillus thuringiensis)
chain: DSPKQSQKIVGYFPSWGVYGRNYQVADIDASKLTHLNYAFADICWKGKHGNPSTHPDNPNKQTWNCKESGVPLQNKEVPNGTLVLGEPWADVTKSYPGSGTTWEDCDKYARCGNFGELKRLKAKYPHLKTIISVGGWTWSNRFSDMAADEKTRKVFAESTVAFLRAYGFDGVDLDWEYPGVETIPGGSYRPEDKQNFTLLLQDVRNALNKAGAEDGKQYLLTIASGASQRYADHTELKKISQILDWINIMTYDFHGGWEATSNHNAALYKDPNDPAANTNFYVDGAIDVYTNEGVPVDKLVLGVPFYGRGWKSCGKENNGQYQPCKPGSDGKLASKGTWDDYSTGDTGVYDYGDLTANYVNKNGFVRYWNDTAKVPYLYNATTGTFISYDDNESMKYKTDYIKTKGLSGAMFWELSGDCRTSPKYSCSGPKLLDTLVKELLGGPINQKDTEPPTNVKNIIVTNKTSSSVQLSWTASTDNVGVTEYEITAGEEKWSATTNSITIKNLKPNTEYTFSVIAKDASGNKSHPTALTVKTDEANTTPPDGNGTATFSVTSNWGSGYNFSIIIKNNGTIPIKNWKLEFDYSGNLTQVWDSKISSKTNNHYVITNAGWNGEIPPGGSITIGGAGTGNPAELLNAVISEN
modifications: immobilized
B8: in experiment [1] (6 days), the “Observed mold growth spots” value was 15 spots (out of 18 inoculated) and the “Percent of mold growth relative to surfactant only control” value is 83%.

(Values after US20250236878A1 (priority 2019, published 2025).)
